From patent US20210299331A1, “PLURIPOTENT STEM CELL-DERIVED PLATE-SHAPED CARTILAGE AND METHOD FOR PRODUCING THE SAME” (KYOTO UNIVERSITY, priority 2018, published 2021) come the findings set out here.

Assay [1] deals with human iPS cell line QHJI-derived cartilaginous particles. As to the kind of experiment: In vitro integration of paired cartilaginous particles in round-bottom 96-well plate, cultured with FGFR inhibitor. The class given is cell-based. On the procedure:
(§1) Two cartilaginous particles were put into a well of a round-bottom 96-well plate (see FIGS. 1A and 1B) and cultured under the conditions of 37° C. and 5% CO2 in chondrogenic medium (DMEM (Sigma) with 1% ITS, 1% FBS, 2 mM L-glutamine (Thermo), 1×10^−4 M non-essential amino acids (Thermo), 1 mM sodium pyruvate (Thermo), 50 U of penicillin, […] streptomycin, 50 μg/mL ascorbic acid (Nacalai), 10 ng/mL BMP2 (Peprotech), 10 ng/mL TGFβ1 (Peprotech), and 10 ng/mL GDF5 (PTT)). In total, 84 wells, each of which contained a pair of cartilaginous particles, were prepared. The wells were divided into 7 groups (12 pairs per group), and each was subjected to macroscopic and histological analyses at the predetermined time points ([…] after the start of the integration experiment). The medium was changed every day gently and carefully so as not to change the positions of the cartilaginous particles.
To further investigate the effects of FGF on the integration, an FGFR inhibitor, NVP-BGJ398 (ChemScene LLC), was used in the culture. NVP-BGJ398 was dissolved in DMSO to prepare a 50 μM stock solution. In total, 30 new pairs of cartilaginous particles were cultured under the conditions described in the above (3). Fifteen pairs were cultured in a medium supplemented with vehicle (0.3 μL of DMSO), and the other 15 pairs were cultured in a medium supplemented with 0.3 μL of the NVP-BGJ398 stock solution (final concentration: 50 nM). After 14 days of culture, the samples were subjected to histological analysis.
(§2) The pairs of cartilaginous particles were fixed with 4% paraformaldehyde, processed, and embedded in paraffin. 20 to 150 serial sections were prepared around the integrated portion of the sample so that the sections contain the most contact area between the paired cartilaginous particles (see FIG. 1C). Serial sections with the greatest contact portion were selected and used for further analysis. The sections were stained with hematoxylin-eosin and safranin O-fast green-iron hematoxylin and immunostained with a goat anti-type I collagen antibody (Souther Biotech) and an anti-type II collagen antibody (Thermo).
(§3) For statistical analysis, the degree of integration of cartilaginous particles at each time point was graded as follows: grade 0, no integration; grade 1, perichondrium-like membrane integration; grade 2, cartilage integration (Table 2). The grades are non-parametric data, and statistical analysis was performed using the Steel-Dwass test. All the samples were graded as 0 (no integration) on day 0 and graded as 2 (cartilage integration) on day 56.

Assay [2] has the same test system. In words: In vitro integration of paired cartilaginous particles in round-bottom 96-well plate, cultured with FGF18. The following applies: for Grade 0 No integration (number of pairs) / Grade 1 Integration by perichondrium-like membrane (number of pairs) / Grade2 Integration by cartilage (number of pairs): 15 pairs per group. It counts as cell-based. How it is done:
as §1
Recombinant human FGF18 (PeproTech) was dissolved in phosphate-buffered saline (PBS) to prepare a stock solution (100 μg/mL). In total, 90 pairs of cartilaginous particles were cultured under the conditions described in the above (3). One pair per well was cultured in 0.3 mL of medium. Forty-five pairs were cultured in a medium supplemented with vehicle (0.3 μL of PBS), and the other 45 pairs were cultured in a medium supplemented with 0.3 μL of the FGF18 stock solution (final concentration: 100 ng/mL). The 45 pairs in each treatment group were further separated into three equal-sized groups and subjected to histological analysis (3, 7, or 14 days after the start of the experiment).
as §2, §3

Setting [3] is: Day 14, NVP-BGJ398 50 nM, 15 pairs per group, P < 0.01 vs Vehicle (Steel-Dwass).
The mark [4] stands for this setting: Day 14, FGF18 100 ng/mL, P < 0.01 vs Vehicle (Steel-Dwass).

In the case of `CCN1CCN(c2ccc(Nc3cc(N(C)C(=O)Nc4c(Cl)c(OC)cc(OC)c4Cl)ncn3)cc2)CC1` [NVP-BGJ398], in assay [1] (setting [3]), the “Grade 0 No integration (number of pairs)” value came to 15, the “Grade 1 Integration by perichondrium-like membrane (number of pairs)” value (from here on “Grade 1 Integration”) is listed as 0 and the “Grade2 Integration by cartilage (number of pairs)” value (“Grade2 Integration by cartilage” below) turned out to be 0. The “Pairs of cartilaginous particles that showed integration” value in assay [1] (Day 14, NVP-BGJ398 50 nM, 15 pairs, vehicle 11 out of 15) is “no pairs”. The “Effect of addition to the medium on integration of cartilaginous particles” value in assay [1] (NVP-BGJ398 50 nM in medium) is listed as “inhibited the integration of cartilaginous particles”.

B1: FGF18: Recombinant human FGF18 (PeproTech), an FGF receptor agonist added to the culture medium (protein, UniProt O76093 28-207, looked up)
Fibroblast growth factor 18: EENVDFRIHVENQTRARDDVSRKQLRLYQLYSRTSGKHIQVLGRRISARGEDGDKYAQLLVETDTFGSQVRIKGKETEFYLCMNRKGKLVGKPDGTSKECVFIEKVLENNYTALMSAKYSGWYVGFTKKGRPRKGPKTRENQQDVHFMKRYPKGQPELQKPFKYTTVTKRSRRIRPTHPA
B1: in assay [2] (Day 3, FGF18 100 ng/mL), the “Grade 0 No integration (number of pairs)” value amounted to 12, the “Grade 1 Integration” value amounted to 3 and the “Grade2 Integration by cartilage” value was found to be 0. In assay [2] (Day 7, FGF18 100 ng/mL), the “Grade 0 No integration (number of pairs)” value is reported as 10, the “Grade 1 Integration” value is reported as 5 and the “Grade2 Integration by cartilage” value worked out at 0. Besides, in assay [2] (setting [4]), the “Grade 0 No integration (number of pairs)” value is 1, the “Grade 1 Integration” value was found to be 14 and the “Grade2 Integration by cartilage” value is reported as 0. Moreover, in assay [2] (Day 14, FGF18 100 ng/mL, vehicle showed minimal integration), the “Integration of treated cartilaginous particles (observation)” value was “substantial integration”. Besides, the “Integration grade versus vehicle-treated pairs (statistics)” value in assay [2] (Day 14, Steel-Dwass test) is listed as “Significant difference”. Moreover, the “Effect of addition to the medium on integration of cartilaginous particles” value in assay [2] (FGF18 100 ng/mL in medium) was “accelerated the integration of cartilaginous particles”. In assay [2] (FGF18 100 ng/mL, safranin O-fast green-iron hematoxylin sections), the “Histological finding in treated cartilaginous particles” value is listed as “thick connection of the perichondrium-like membranes”.
